From publication PMC10953559, “Native Capillary Electrophoresis–Mass Spectrometry of Near 1 MDa Non‐Covalent GroEL/GroES/Substrate Protein Complexes” (Advanced Science, 2024)
Positions count from the first letter of the chain named.

B1: double-ring (DR) mutant GroEL 14-mer (mutant GroEL14) (natural protein, E. coli, UniProt P0A6F5 2-548, looked up)
chain: AAKDVKFGNDARVKMLRGVNVLADAVKVTLGPKGRNVVLDKSFGAPTITKDGVSVAREIELEDKFENMGAQMVKEVASKANDAAGDGTTTATVLAQAIITEGLKAVAAGMNPMDLKRGIDKAVTAAVEELKALSVPASDSKAIAQVGTISANSDETVGKLIAEAMDKVGKEGVITVEDGTGLQDELDVVEGMQFDRGYLSPYFINKPETGAVELESPFILLADKKISNIREMLPVLEAVAKAGKPLLIIAEDVEGEALATLVVNTMRGIVKVAAVKAPGFGDRRKAMLQDIATLTGGTVISEEIGMELEKATLEDLGQAKRVVINKDTTTIIDGVGEEAAIQGRVAQIRQQIEEATSDYDREKLQERVAKLAGGVAVIKVGAATEVEMKEKKARVEDALHATRAAVEEGVVAGGGVALIRVASKLADLRGQNEDQNVGIKVALRAMEAPLRQIVLNAGEEPSVVANTVKGGDGNYGYNAATEEYGNMIDMGILDPTKVTRSALQYAASVAGLMITTEAMVTDLPKNDAADLGAAGGMGGMGGMGGMC
notes: GroEL, E. coli, UniProtKB P0A6F5, with four mutations made by QuikChange from the WT GroEL gene; the measured mass fits 14 monomers with the N-terminal methionine cleaved; numbers count the first methionine; also called DR GroEL14; source: E. coli BL21 (DE3) Gold, purified from the soluble fraction (chromatography, size exclusion); copies: 14
B2: single-ring (SR) mutant GroEL 7-mer (GroEL7) (natural protein, E. coli, UniProt P0A6F5 2-548, looked up)
chain: B1 chain with A137C, R451E, A457C, E460A, S462A, V463A, A518C, C547M
notes: GroEL, E. coli, UniProtKB P0A6F5, with four mutations made by QuikChange from the WT GroEL gene; theoretical mass quoted for 7 monomers with the N-terminal methionine cleaved; numbers count the first methionine; also called SR GroEL7; mutant SR; source: E. coli BL21 (DE3) Gold, purified from the soluble fraction (chromatography, size exclusion)
B3: N-acetyl neuraminic acid aldolase, native tetramer (NanA4) (enzyme, E. coli, UniProt P0A6L4 2-297, looked up)
chain: ATNLRGVMAALLTPFDQQQALDKASLRRLVQFNIQQGIDGLYVGGSTGEAFVQSLSEREQVLEIVAEEAKGKIKLIAHVGCVSTAESQQLAASAKRYGFDAVSAVTPFYYPFSFEEHCDHYRAIIDSADGLPMVVYNIPALSGVKLTLDQINTLVTLPGVGALKQTSGDLYQMEQIRREHPDLVLYNGYDEIFASGLLAGADGGIGSTYNIMGWRYQGIVKALKEGDIQTAQKLQTECNKVIDLLIKTGVFRGLKTVLHYMDVVSVPLCRKPFGPVDEKYLPELKALAQQLMQERG
notes: N-acetyl neuraminic acid aldolase NanA, E. coli, WT monomer; the theoretical mass quoted for the detected tetramer (129 849.09 Da) is that with the N-terminal methionine cleaved; also called tetrameric NanA4; source: E. coli BL21 (DE3) Gold, purified from the soluble fraction (chromatography, size exclusion)
B4: co-chaperonin GroES 7-mer (GroES7) (natural protein, E. coli, UniProt P0A6F9 1-97, looked up)
chain: MNIRPLHDRVIVKRKEVETKSAGGIVLTGSAAAKSTRGEVLAVGNGRILENGEVKPLDVKVGDIVIFNDGYGVKSEKIDNEEVLIMSESDILAIVEA
notes: GroES, E. coli, WT monomer; the measured mass fits the non-truncated form (N-terminal methionine kept); also called apo-GroES7; source: E. coli BL21 (DE3) Gold, purified from the soluble fraction (chromatography, size exclusion)

Legend:
[1] = biological target: the molecule itself; assay: native MS; capillary electrophoresis online with native ESI-MS (CE-MS) of the oligomer; bare fused silica capillary, BGE 50 mM ammonium acetate pH 6.7, 20 kV reverse polarity, cartridge 15 °C, in-source desolvation 100 V; sample diluted in 50 mM Tris-HCl pH 7.5, 50 mM KCl, 15 mM MgCl2
[2] = biological target: B1; assay: native MS; CE-MS; GroEL14 (6 µM) and GroES7 (6 µM) injected; BGE 50 mM ammonium acetate pH 6.7 with 10 to 50 µM ATPγS and 15 to 75 µM Mg2+; details: both partners purified

Binder	stoichiometry N [1] [subunits]	stoichiometry N [2] [GroES7 per GroEL14]
B1	14	–
B2	7	–
B3	4	–
B4	7	1
